Source: US20080274112A1, “Nogo Receptor Antagonists” (priority 2003, published 2008)

How the values were obtained:
mouse NgR1 = molecular target: T1, mouse NgR1 (Mus musculus, UniProt Q99PI8); experiment: Antibody binding to mouse Nogo receptor-1
T1 sequence (Q99PI8 27-447): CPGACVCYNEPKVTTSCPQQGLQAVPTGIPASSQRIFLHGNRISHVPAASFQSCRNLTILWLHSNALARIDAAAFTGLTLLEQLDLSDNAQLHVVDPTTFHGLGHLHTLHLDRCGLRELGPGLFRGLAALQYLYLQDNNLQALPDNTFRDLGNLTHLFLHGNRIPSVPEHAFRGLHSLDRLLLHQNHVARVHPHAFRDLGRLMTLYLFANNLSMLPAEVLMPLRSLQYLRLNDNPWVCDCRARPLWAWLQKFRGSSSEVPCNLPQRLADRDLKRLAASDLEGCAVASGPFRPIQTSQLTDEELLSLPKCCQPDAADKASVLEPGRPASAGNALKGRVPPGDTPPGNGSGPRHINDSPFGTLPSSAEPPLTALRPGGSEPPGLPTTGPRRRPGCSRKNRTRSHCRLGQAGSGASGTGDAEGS

MAG + sNogoR344-Fc = molecular target: T2, MAG + sNogoR344-Fc (Rattus norvegicus, UniProt Q99M75, A303T/C287S/C43R/E284G/T53A); experiment: mAb/Fab inhibition of MAG binding to sNogoR344-Fc (ELISA)
T2 construct: amino acid residues 26-344 of rat Nogo receptor-1; made in house
T2 sequence (Q99M75 26-344 C43R/T53A/E284G/C287S/A303T): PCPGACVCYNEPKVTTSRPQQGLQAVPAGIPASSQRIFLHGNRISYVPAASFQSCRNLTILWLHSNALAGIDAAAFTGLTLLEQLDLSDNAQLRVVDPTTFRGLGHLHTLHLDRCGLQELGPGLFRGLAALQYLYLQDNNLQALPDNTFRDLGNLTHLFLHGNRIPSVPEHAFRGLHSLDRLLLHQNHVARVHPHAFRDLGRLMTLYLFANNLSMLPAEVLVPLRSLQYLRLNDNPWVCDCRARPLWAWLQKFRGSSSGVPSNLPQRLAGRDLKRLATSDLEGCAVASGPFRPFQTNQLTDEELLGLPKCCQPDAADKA
Experimental: 0.5 μg of a soluble Nogo receptor-1 fusion protein comprising amino acid residues 26-344 of rat Nogo receptor-1 and the hinge and Fc region of the rat IgG1 molecule (sNogoR344-Fc) produced as described below was immobilized on 250 μg of protein-A- or wheatgerm agglutinin-conjugated SPA beads (Amersham Pharmacia Biotech) for 2 hours at 25° C. SPA beads coupled with Fc-sNogoR-1, anti-Nogo receptor-1 mAb and 1 μl ^125I-Nogo66 (Amersham, 2000 Ci/mmol, 1 nM) in 50 μl of the HEPES-buffered incubation medium (10 mM HEPES, pH 7.4, 0.1% bovine serum albumin, 0.1% ovalbumin, 2 mM MgCl2, 2 mM CaCl2 and protease inhibitors) was added to each sample well. After 16 hours, radioactivity was measured in quadruplicate samples using a TopCount® (Packard). IC50 values were calculated from a curve-fit analysis (FIG. 3) (PRISM, GraphPad Software, NJ). In some experiments, we also used AP-ligand conjugates (e.g. AP-Nogo66) and detected binding by monitoring alkaline phosphatase activity. We also assayed the ability of the mAbs to block binding of the ligands MAG-Fc and AP-OM-gp to Nogo receptor-1.
The calculated IC50 for Nogo66 for 7E11 and 1H2 were 400 nM and 60 nM, respectively. The data from ELISAs monitoring mAb-mediated inhibition of binding of the three ligands to Nogo receptor-1 are summarized in Table 6.
We also performed ELISA binding assays using the Fab-phage 14D5.

DRG neurons = experiment: Neurite outgrowth assay on CNS myelin (Example 5); type: cell-based; conditions: P3-4 rat DRG; 15 μg/ml mAb 7E11
Experimental: To test the ability of the monoclonal and Fab-phage antibodies produced above to lessen the inhibitory effect of CNS myelin on neurons, Lab-Tek® culture slides (4 wells) were coated with 0.1 mg/ml poly-D-lysine (Sigma®). CNS myelin or PBS was spotted as 3 μl drops. Fluorescent microspheres (Polysciences) were added to the myelin/PBS to allow later identification of the drops (Grandpre et al, Nature 403, 2000). Lab-Tek® slides were then rinsed and coated with 10 μg/ml laminin (Gibco™). Dorsal root ganglions (DRG's) from P3-4 Sprague Dawley rat pups were dissociated with 1 mg/ml collagenase type 1 (Worthington), triturated with fire-polished Pasteur pipettes pre-plated to enrich in neuronal cells and finally plated at 23,000 cells/well on the pre-coated Lab-Tek® culture slides. The culture medium was F12 containing 5% heat inactivated donor horse serum, 5% heat inactivated fetal bovine serum and 50 ng/ml MNGF and incubated at 37 °C and 5% CO2 for 6 hours. Fifteen μg/ml of mAb 7E11 was added immediately after plating.
Slides were fixed for 20 minutes with 4% paraformaldehyde containing 20% sucrose and stained for the neuronal marker anti beta-III-tubulin (Covance TUJ1) diluted 1:500. […] 5× digital images were acquired with OpenLab™ software and analysed by using the MetaMorph® software for quantification of neurite outgrowth.

mouse NgR3 = molecular target: T3, mouse NgR3 (Mus musculus, UniProt Q8K0S5); experiment: Antibody binding to mouse Nogo receptor-3; conditions: species not stated
T3 sequence (Q8K0S5 25-424): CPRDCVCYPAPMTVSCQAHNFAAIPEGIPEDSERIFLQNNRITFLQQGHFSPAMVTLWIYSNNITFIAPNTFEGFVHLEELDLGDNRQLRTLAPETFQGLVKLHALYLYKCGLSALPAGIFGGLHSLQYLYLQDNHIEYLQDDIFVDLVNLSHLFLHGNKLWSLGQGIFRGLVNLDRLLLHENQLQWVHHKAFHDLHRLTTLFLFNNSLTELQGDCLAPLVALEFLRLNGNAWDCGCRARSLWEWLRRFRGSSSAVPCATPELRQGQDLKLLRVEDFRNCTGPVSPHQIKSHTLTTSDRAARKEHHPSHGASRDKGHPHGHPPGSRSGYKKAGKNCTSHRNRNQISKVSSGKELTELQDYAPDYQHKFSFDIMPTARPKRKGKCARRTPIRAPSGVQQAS

B1: 7E11: murine monoclonal anti-Nogo receptor-1 antibody, IgG1 kappa, ATCC PTA-4587; immunogen rat Nogo receptor-1 residues 110-125 (antibody, V domains shown)
VH: VQLQESGAELVMPGASVKMSCKASGYTFTDYWMHWVKQRPGQGLEWIGAIDPSDSYSSYNQNFKGKATLTVDGSSSTAYMQLSSLTSEDSAVYYCARRITEAGAWFAYWGQGTTVT
VL: DVVMTQTPLSLPVSLGDQASISCRSSQSLVHSNGNTYLHWYLQKPGQSPKLLIYKVSNRFSGVPDRFSGSGSGTDFTLKISRVDAEDLGVYFCSQSTHVPFTFGGGTKLEIKRADAAPTVSISHH
- binding to mouse NgR1 (mouse NgR1): poorly
- inhibition of binding of MAG to sNogoR344-Fc (MAG + sNogoR344-Fc): inhibited binding
- percent displacement, MAG + sNogoR344-Fc (MAG + sNogoR344-Fc; 30 nM antibody): 30 nM (60%)
- EC50 (MAG + sNogoR344-Fc; curve-fit analysis): 500 nM
- protection from myelin-mediated inhibition of neurite outgrowth (DRG neurons): protected
- binding to NgR3 (mouse NgR3): does not bind well
